Data set [1] deals with Micrococcus luteus cell wall suspension. Nature of the data set: Lysozyme activity, turbidity assay. The format is biochemical. The note with it: lysozyme-chitosan 1:3 pastes; for lysozyme enzymatic activity after drying: t-REV 300 Watts, 30 Torr, 10 min. The protocol: Lysozyme activity was determined by the turbidity assay method using freeze-dried Micrococcus luteus cell wall suspension.

The conditions of data set [2]: cited from earlier work.
The nature of data set [3]: Water activity (Aqua lab water activity meter). The format is physicochemical. Conditions: REV, 10% SMP, 10 Torr (200 W). Here is the method: The puffed foam material was removed from the drier and packed in polyethylene bags. The final moisture content and water activity of the dried foams were measured after 24 hours of drying (allow the sample to equilibrate) using air oven method and Aqua lab water activity meter (model series 3, Decagon Device Inc., Washington, USA).
The puffed foam structure was removed from the drier and packed in polyethylene bags. The final moisture content and water activity of the dried foams were measured after 24 hours of drying (allow the sample to equilibrate) using air oven method and Aqua lab water activity meter (model series 3, Decagon Device Inc., Washington, USA).
The water activity of the samples before microwave vacuum drying, immediately after drying and during storage was measured (Aqualab R Model series 3, Decagon Devices, Inc., Washington, USA).

For “lysozyme: Lysozyme extracted from chicken egg-white (Neova Technologies Inc.)”, the “increase in lysozyme activity after t-REV” value in data set [1] (before versus after t-REV) was “about 10%”. For the same substance, the entries for the “lysozyme enzymatic activity after drying” value in data set [1] and in data set [1] (listed as Lysozyme) were “no enzymatic activity loss” and “retained its activity”, respectively. For the same substance, the retention during pelleting entry in data set [2] (encapsulated with hydrogenated vegetable oil and calcium stearate) is reported as “up to 75%”. Further, in data set [2] (unprotected lysozyme, pelleting at 195° F.), the “loss after the feed pelleting process” value is listed as “More than 50%”.

Bifidobacterium longum: the aw in data set [3] stood at 0.36 ± 0.01.

The record behind these values is US8877469B2, “Method of drying biological material” (Enwave Corporation, priority 2004, dated 2014).
